According to patent publication US20210284724A1 (I MAB BIOPHARMA US, published 2021):

T1: human CXCL13 (human, UniProt O43927 23-109)
T1 construct: also called huCXCL13; rhCXCL13
T1 sequence (looked up): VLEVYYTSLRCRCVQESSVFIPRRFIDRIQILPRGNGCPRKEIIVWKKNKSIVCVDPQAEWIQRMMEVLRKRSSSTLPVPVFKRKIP

T2: cynomolgus CXCL13 (cynomolgus, UniProt H6WS58 23-109)
T2 construct: also called cynoCXCL13; Cyno CXCL13
T2 sequence: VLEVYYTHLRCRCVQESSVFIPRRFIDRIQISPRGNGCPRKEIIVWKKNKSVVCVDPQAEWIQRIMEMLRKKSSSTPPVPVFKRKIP

T3: mouse CXCL13 (mouse, UniProt O55038 22-109)
T3 construct: also called rmCXCL13
T3 sequence (looked up): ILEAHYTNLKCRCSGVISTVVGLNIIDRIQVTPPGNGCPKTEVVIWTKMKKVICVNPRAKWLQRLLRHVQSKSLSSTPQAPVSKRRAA


Tests used:
human CXCL13 [1] = target: T1, human CXCL13; assay: cell-based blocking ELISA, CXCL13 to CHO-K1-CXCR5
Experimental: Splenocytes were electro-fused with mouse myeloma cell line SP2/0 cells and plated into 96-well culture plate. The hybridoma supernatants were tested by ELISA binding assay for anti-human CXCL13 binders. Supernatants of positive binding clones were screened for function in blocking of human CXCL13 binding to its […] CXCR5 by Cell-based receptor blocking ELISA assay. Briefly, 5×10⁴ CHO-K1-CXCR5 cells were plated in 96-well plate with 100 μl of culture medium and incubated at 37° C. overnight. Cells were fixed with 100 μl of 2% PFA at RT for 1 hr after washing with PBS for 1 time. Blocking was done with 1% BSA in PBST for 1 hr at RT. Supernatants were diluted with PBS and pre-incubated with equal volume of 0.3 μg/ml human CXCL13 for 30 min at RT. 100 μl of antibody-antigen complex was then transferred into each cell wells for 30 min at RT. The samples were washed with 1×PBST for 3 times and 100 μl of 3 μg/ml of human Mab5261 antibody was add into each well to capture human CXCL13 and anti-human Fc-HRP was used to indirectly detect human CXCL13 when it bound to CHO-K1-CXCR5 cells. […] Reading was done at […].
Those antibodies were purified from hybridoma supernatants by binding with Protein G column and characterized by ELISA binding assays and cell-based blocking ELISA assays. […] 11/20 clones bound to both human CXCL13 and cynomolgus CXCL13 appeared to completely block human CXCL13 to human CXCR5. 11 blockers bound to both huCXCL13 and cynoCXCL13 were produced as chimeric human IgG1 antibodies for further Characterization.

human CXCL13 [2] = target: T1, human CXCL13; assay: ELISA, coated antigen
cynomolgus CXCL13 = target: T2, cynomolgus CXCL13; assay: ELISA, coated antigen
mouse CXCL13 = target: T3, mouse CXCL13; assay: ELISA, coated antigen
human CXCL13 [3] = target: T1, human CXCL13; assay: SPR Biacore T200
Experimental: To further optimization of 71F4-B, each Mutations in 71F4A3 useful for improving binding (Kon) were added into 71F4-B, the sequences were listed in Table 28. Antibodies according to these sequences were generated and affinity testing was performed by Biacore T200.

Binder	IC50 (human CXCL13 [1])	EC50 (human CXCL13 [2])	binding result (cynomolgus CXCL13)	EC50 (mouse CXCL13)	Kd (human CXCL13 [3])	koff (human CXCL13 [3])	kon (human CXCL13 [3])	binding result (mouse CXCL13)
71F4-B-A (antibody, V domains shown) VH: EVQLVESGGGLVQPGGSLRLSCAASGIDFSRYWMSWVRQAPGKGLEWVAEINPEASTINYAPSLKDRFTISRDNAKNSLYLQMNSLRAEDTAVYYCARQDDYEYYTMDYWGQGTTVTVSS VL: DIQMTQSPSSLSASVGDRVTITCKVSQDVNTGVAWYQQKPGKAPKLLIYSASYRYTGVPSRFSGSGSGTDFTFTISSLQPEDIATYYCQQYYSTPLTFGGGTKLEIK	–	–	–	–	0.388 nM	6.82e-05 s⁻¹	176000 M⁻¹ s⁻¹	–
71F4-B-S1 (antibody, V domains shown) VH: EVQLVESGGGLVQPGGSLRLSCAASGIDFSRYWMSWVRQAPGKGLEWVAEINPESSSINYAPSLKDRFTISRDNAKNSLYLQMNSLRAEDTAVYYCARQDDYEYYTMDYWGQGTTVTVSS VL: DIQMTQSPSSLSASVGDRVTITCKVSQDVNTGVAWYQQKPGKAPKLLIYSASYRYTGVPSRFSGSGSGTDFTFTISSLQPEDIATYYCQQYYSTPLTFGGGTKLEIK	–	–	–	–	0.404 nM	9.26e-05 s⁻¹	229000 M⁻¹ s⁻¹	–
71F4-B-H (antibody, V domains shown, also called 71F4A3-B-H) VH: EVQLVESGGGLVQPGGSLRLSCAASGIDFSRYWMSWVRQAPGKGLEWVAEINPESSTINYAPSLKDRFTISRDNAKNSLYLQMNSLRAEDTAVYYCARQDDYEHYTMDYWGQGTTVTVSS VL: DIQMTQSPSSLSASVGDRVTITCKVSQDVNTGVAWYQQKPGKAPKLLIYSASYRYTGVPSRFSGSGSGTDFTFTISSLQPEDIATYYCQQYYSTPLTFGGGTKLEIK	–	–	–	–	0.0647 nM	1.27e-05 s⁻¹	197000 M⁻¹ s⁻¹	–
71F4-B-ASH (antibody, V domains shown) VH: EVQLVESGGGLVQPGGSLRLSCAASGIDFSRYWMSWVRQAPGKGLEWVAEINPEASSINYAPSLKDRFTISRDNAKNSLYLQMNSLRAEDTAVYYCARQDDYSHYTMDYWGQGTTVTVSS VL: DIQMTQSPSSLSASVGDRVTITCKVSQDVNTGVAWYQQKPGKAPKLLIYSASYRYTGVPSRFSGSGSGTDFTFTISSLQPEDIATYYCQQYYSTPLTFGGGTKLEIK	–	–	–	–	0.521 nM	9.17e-05 s⁻¹	176000 M⁻¹ s⁻¹	–
71F4-B-L (antibody, V domains shown) VH: EVQLVESGGGLVQPGGSLRLSCAASGIDFSRYWMSWVRQAPGKGLEWVAEINPESSTINYAPSLKDRFTISRDNAKNSLYLQMNSLRAEDTAVYYCARQDDYLYYTMDYWGQGTTVTVSS VL: DIQMTQSPSSLSASVGDRVTITCKVSQDVNTGVAWYQQKPGKAPKLLIYSASYRYTGVPSRFSGSGSGTDFTFTISSLQPEDIATYYCQQYYSTPLTFGGGTKLEIK	–	–	–	–	0.443 nM	8.58e-05 s⁻¹	194000 M⁻¹ s⁻¹	–
71F4-B-LT (antibody, V domains shown, also called 71F4A3-B-LT) VH: EVQLVESGGGLVQPGGSLRLSCAASGIDFSRYWMSWVRQAPGKGLEWVAEINPESSTINYAPSLKDRFTISRDNAKNSLYLQMNSLRAEDTAVYYCARQDDYLTYTMDYWGQGTTVTVSS VL: DIQMTQSPSSLSASVGDRVTITCKVSQDVNTGVAWYQQKPGKAPKLLIYSASYRYTGVPSRFSGSGSGTDFTFTISSLQPEDIATYYCQQYYSTPLTFGGGTKLEIK	–	–	–	–	0.0435 nM	1.02e-05 s⁻¹	235000 M⁻¹ s⁻¹	–
71F4-B-AS (antibody, V domains shown) VH: EVQLVESGGGLVQPGGSLRLSCAASGIDFSRYWMSWVRQAPGKGLEWVAEINPEASSINYAPSLKDRFTISRDNAKNSLYLQMNSLRAEDTAVYYCARQDDYEYYTMDYWGQGTTVTVSS VL: DIQMTQSPSSLSASVGDRVTITCKVSQDVNTGVAWYQQKPGKAPKLLIYSASYRYTGVPSRFSGSGSGTDFTFTISSLQPEDIATYYCQQYYSTPLTFGGGTKLEIK	–	–	–	–	0.321 nM	7.25e-05 s⁻¹	226000 M⁻¹ s⁻¹	–

The remaining lines, values ahead:

IC50 (human CXCL13 [1])	EC50 (human CXCL13 [2])	binding result (cynomolgus CXCL13)	EC50 (mouse CXCL13)	Kd (human CXCL13 [3])	koff (human CXCL13 [3])	kon (human CXCL13 [3])	binding result (mouse CXCL13)	Binder
11.7 µg/mL	2.27 µg/mL	no binding	0.538 µg/mL	–	–	–	–	409G9C2 (antibody, V domains shown, Hybridoma mAb) VH: EVQLQQSGPGLVKPSGTLSLTCAVSGGSITSSYWWTWVRQPPGKGLEWIGEIYHSGRPNYNPSLKSRATISVDKSRNQFSLNLTSVTAADTAVYYCAKTAAVSYWYFDLWGRGTLVTVSS VL: DIKMNQSPSSMSASLGDRVTITCQASQDIGNDLIWFQQKPGKSPRPLIYYASNLANGVPSRFSGRRSESNYSLTISSLESEDMADYHCLQFKQYPFTFGAGTKLELK
8.38 µg/mL	2.14 µg/mL	no binding	0.761 µg/mL	–	–	–	–	410A4D10 (antibody, V domains shown, Hybridoma mAb) VH: EVQLQQSGPGLVRPSGTLSLTCAVSGGSISSRNWWGWVRQPPGKGLEWIGEIYHSGGTNYNPSLKSRVTISVDKSKNQFSLKLSSVTAADTAVYYCAREFGDSVWYFDLWGRGTLVTVSS VL: DIVITQSPSSMSASLGDRVTITCQASQDIGNDLVWFQQKPGKSPRPLIYYATNLADGVPSRFSGRRSESKYSLTISNLESEDMADYHCLQFKQYPYTFGAGTKLELK
–	–	–	–	0.52 nM	0.000268 s⁻¹	515000 M⁻¹ s⁻¹	–	71F4-B-S2 (antibody, V domains shown) VH: EVQLVESGGGLVQPGGSLRLSCAASGIDFSRYWMSWVRQAPGKGLEWVAEINPESSTINYAPSLKDRFTISRDNAKNSLYLQMNSLRAEDTAVYYCARQDDYSYYTMDYWGQGTTVTVSS VL: DIQMTQSPSSLSASVGDRVTITCKVSQDVNTGVAWYQQKPGKAPKLLIYSASYRYTGVPSRFSGSGSGTDFTFTISSLQPEDIATYYCQQYYSTPLTFGGGTKLEIK
0.703 µg/mL	0.0223 µg/mL	no binding	–	–	–	–	no binding	181B11G12 (antibody, V domains shown, Hybridoma mAb) VH: EVKLVESEGGLVQPGSSMKLSCTASGFTFSDYYMAWVRQVPEKGLEWVANINYDGSDTYYLDSLKSRFIISRDNAKNILYLQMSSLKSEDTATYYCVRDVAYDDSYAMDYWGQGTSVTVSS VL: DIQMTQSPSSLSASLGGKVTITCKASQDINKYIAWYQHKPGKGPRLLIHYTSTLQPGIPSRFSGSGSGRDYSFSISNLEPEDIATYYCLQYDSLYTFGGGTKLEIK
3.24 µg/mL	0.0138 µg/mL	no binding	–	–	–	–	no binding	345G1B4 (antibody, V domains shown, Hybridoma mAb) VH: QVTLKESGPGILQPSQTLSLTCSFSGFSLSTSNMGVGWIRQPSGKGLEWLAHIWWDDVKRYNPALKSRLTISKDTSSSQVFLKIASVDTADTATYYCARSTTLVAFDYWGQGTTLTVSS VL: DIVMTQSPSSLTVTAGEKVTMSCKSSQSLLNSGNQKNYLTWYQQKPGQPPKLLIYWASTRESGVPDRFTGSGSGTDFTLTISSVQAEDLAVYYCQNDYSYPTFGGGTKLEIK
1 µg/mL	0.0135 µg/mL	no binding	–	–	–	–	no binding	396A5A1 (antibody, V domains shown, Hybridoma mAb) VH: QVTLKESGPGILQPSQTLSLTCSFSGFSLSTSGMGIGWIRQPSGKGLEWLAHIWWDDIKRYNPALKSRLTVSKDTSTSQVFLNIASVDTADIATYFCARSTTVVAFDYWGQGTTLTVSS VL: DILMTQSPSSLTVTAGEKVTMSCKSSQSLLNSGNQKNYLTWYQQKPGQPPKLLIYWASTRESGVPDRFTGTGSGTDFTLTISSVQAEDLAIYYCQNDYDYPTFGGGTKLEIK
0.974 µg/mL	0.0153 µg/mL	no binding	–	–	–	–	no binding	178E2B3 (antibody, V domains shown, Hybridoma mAb) VH: QVQLQQSGAELVRPGTSVKVSCKASGYAFTNHLIEWVKQRPGQGLEWIGVINPGSGGTKYNEKFKGKATVTADKSSSTVYMQLNSLTSEDSAVYFCARSSDGYYEEDYFDYWGQGTTLTVSS VL: QIVLTQSPAIMSASPGEKVTMTCSASSSVNYMQWYQQKSGTSPKRWIYDTSELASGVPDRFSGSGSGTSYSLTISSMEAEDVATYYCQQWSSDPITFGAGTKLELK
